Data on three molecules can be found in patent publication US20080247947A1, “High dose 111In-pentetreotide therapy of neuroendocrine tumors” (priority 2007, published 2008).

“Also recorded” adds a separate entry of the source.

The test system of data set [1] is carcinoid syndrome, advanced disease. To be noted: patients with advanced disease; cited from earlier work.
For data set [2] the following is noted: cited from earlier work.
Data set [3] deals with progressive neuroendocrine tumors. Briefly: Non-randomized trial: clinical, metabolic and imaging response (RECIST) after two cycles. Conditions: 18 patients, two cycles of 500 mCi. In kind it is in vivo. The text has this: Among these patients, seventeen (53%) had grade I or II hematological toxicities, while one patient had grade III thrombocytopenia with nadir mean of 5 weeks (ranging from 4 to 6 weeks) after therapy (FIG. 2). These toxicities were transient, lasting from 1 to 6 weeks (averaging 3 weeks). […] One patient had grad II liver toxicity which appeared 4 weeks after the therapy and resolved in week 5. […] Among the 18 patients (13 men and 5 women, from 41 to 83 years old (average age 59)), who were treated with two cycles of high dose (500 mCi) ^111In-pentetreotide, therapeutic efficacy of this treatment regimen is evident (FIG. 3). These patient had progressive neuroendocrine tumors and failed first-line therapy. According to the pre-therapy diagnostic ^111In-pentetreotide scan, these patients had grade 3 to grade 5 tumors. In this trial, each dose of ^111In-pentetreotide was infused over a period of 3 to 6 hours. The two treatments were spaced a few weeks (e.g., […]) apart. The patients were monitored for clinical, metabolic, and imaging responses based on using Response Evaluation Criteria in Solid Tumors (RECIST) criteria (Therasse P, Arbuck S G, Eisenhauer E A, et al. New guidelines to evaluate the response to treatment in solid tumors. European Organization for Research and Treatment of Cancer, National Cancer Institute of the United States, National Cancer Institute of Canada. Journal of the National Cancer Institute 2000; 92(3):205-16.).
(§1) Patients were injected with ^111In-pentetreotide at an average dose of 489.2 mCi (ranging from 473.5 to 511.6 mCi) as an intravenous infusion in physiological saline using a specially designed IV pole to decrease radiation exposure to the personnel. The infusion took about 3 to 5 hours, in an outpatient setting. The amount of octreotide administered was 30 mg. Patients were evaluated for hematological, renal and hepatic toxicities using NCI common toxicities criteria on week 4, 5, 6, and 7 after treatment, and every three months thereafter. Patients were followed for an average of 8.69 months with a range of 1.7-17.2 months. 18 patients received a second treatment 10-12 weeks after the first therapy with an average cumulative dose of 982.8 mCi (ranging from 955.1 to 1006.1 mCi). These patients were evaluated for a clinical and metabolic responses beginning 4 weeks after their second therapy.
The efficacy of ^111In-pentetreotide therapy was evaluated in 18 patients who received two cycles of therapy. The primary endpoint was clinical, metabolic and imaging response using RECIS criteria. […] Tumor image before and after treatment showing no progression (FIG. 6).

A further data set relates to NETs. Conditions: 180 mCi every 3 weeks for 10 occasions; cited from earlier work.
Another data set deals with disseminated NETs. Conditions: 16 patients, repeated doses 81-134 mCi, cited from earlier work.
Data set [4] concerns patients with progressive neuroendocrine tumors. Briefly: Non-randomized trial: hematological, renal and hepatic toxicities by NCI common toxicities criteria. In kind it is in vivo. How it is done:
In a non-randomized trial, 32 patients (21 men and 11 women, from 16-83 years old (average 56 years old)) were tested. Among these patients, there were 25 Caucasions (78%), 2 Blacks (6%), 4 Hispanics (12.5%) and 1 other (3%). All patients had progressive neuroendocrine tumors (21 Carcinoma, 7 Islet Cell Carcinoma of the Pancreas, 1 Pituitary Adenoma, 1 Glucagonoma, and 1 Pheochromocytoma) and all had failed first line therapy (23 chemotherapy, 12 radiotherapy, and 28 surgery).
Fourteen patients received one therapy (ranging from 473.5 to 511.6 mCi, with an average of 489.2 mCi) and 18 patients received two treatments with the cumulative doses ranging from 955.1 to 1,006.1 mCi (average=982.8 mCi/patient). Patients were evaluated for evidence of hematological, renal and hepatic toxicities using NCI common toxicities criteria and followed for an average of 9 months (ranging from 1.7 to 17.2 months).
as §1

Another data set concerns carcinoid tumors. Conditions: cited from earlier work.
[5] abbreviates: 18 patients, double-dose treatments.
The mark [6] stands for this setting: 32 patients, one or two cycles of about 500 mCi.

Take `C[C@@H](O)[C@@H]1NC(=O)[C@H](CCCCN)NC(=O)[C@@H](Cc2c[nH]c3ccccc23)NC(=O)[C@H](Cc2ccccc2)NC(=O)[C@@H](NC(=O)[C@H](N)Cc2ccccc2)CSSC[C@@H](C(=O)N[C@H](CO)[C@@H](C)O)NC1=O` [octreotide]: the “tumor stabilization, patients” value in data set [1] is 50-55%. In data set [2], the in vivo half-life was 1.5 to 2 h.
For “[^111In-DTPA-D-Phe1]-octreotide [^111In-pentetreotide]”, in data set [3], the “clinical response (functional living index questionnaire and physical examination), patients” value is on record as 84%; the “metabolic response (25% or more decline in chromogranin or other markers), patients” value was 72%; the “patients achieving stable disease by imaging criteria” value is given as 88%; the “patients achieving stable disease by imaging criteria (count)” value was “sixteen out of the 18”. In addition, the “safety of repeated doses” value in the data set on NETs was “demonstrated the safety”. In the data set with disseminated NETs (18 months after the treatments), the “patients with sustained benefit” value is 31%. In addition, the “patients with some short term benefits” value in the data set on disseminated NETs is “up to 70%”. For the same molecule, the nose bleeds result in data set [4] (4 weeks after treatment) was “One patient”. Also, the “patients with grade I or grade II hematological toxicities” value in data set [4] (18 patients, double-dose (two cycles of 500 mCi)) was 55%. Further, in data set [4] (setting [5]), the “duration of hematological toxicities” value was 1-6 weeks, the “grade III thrombocytopenia” value is recorded as “one patient”, the “nadir mean after therapy” value is recorded as 5 weeks and the “need for supportive therapy” value was “None of the patients required supportive therapy”. The renal toxicity result in data set [4] (18 patients, double-dose treatments, follow-up 3.93 to 17.23 months) is “No renal toxicity was observed”. Besides, the “grade II liver toxicities” value in data set [4] (18 patients, double-dose treatments, appeared 4 weeks after therapy, resolved on week 5) is recorded as “One patient”. Besides, the renal toxicity result in data set [4] (32 patients, follow-up 1.7 to 17.2 months) was “no evidence of renal toxicity; also recorded: No significant short or long term renal toxicity”. In addition, the “need for supportive therapy” value in data set [4] (32 patients, one or two cycles) is recorded as “None of the patients required supportive therapy”. In data set [4] (setting [6]), the “duration of hematological toxicities (average)” value is recorded as 3 weeks, the “grade III thrombocytopenia” value was “one patient” and the “nadir mean of hematological toxicity after therapy” value was found to be 5 weeks. For the same molecule, the “patients with grade I or II hematological toxicities” value in data set [4] (32 patients, one or two cycles of about 500 mCi, intravenous infusion) amounted to 53%. For the same molecule, the “grade II liver toxicity” value in data set [4] (32 patients, appeared 4 weeks after therapy, resolved in week 5) is reported as “One patient”. In addition, the “deaths during the course of the study” value in data set [4] (32 patients, deaths attributed to tumor burden) is “Two patients died”. Further, in data set [4] (average cumulative dose 982.8 mCi, average follow up 8.69 months), the maximum tolerated dose result is on record as “maximum tolerated dose has not been reached”. Moreover, the “overall treatment associated toxicity” value in data set [4] (following one or two cycles) is “no evidence of significant treatment associated toxicity”.
In the case of Interferon [Interferon (IFN)], in the data set on carcinoid tumors (carcinoid tumors), the biochemical response rate was 40% and the tumor response rate was 12%. In addition, the toxicity result in the data set with carcinoid tumors (fever, anorexia, weight loss, fatigue and myelosuppression) is listed as “significant toxicity”.
